Drawing on publication doi:10.1101/2021.12.07.471543, this text covers Kd for two substances.

A word on the Kd: it is the constant that tells how readily two partners part at equilibrium.

The target in the assay is C4BPα1-2, a fragment of human C4b-binding protein (C4BP) (human). Briefly: ITC. A general note: ITC needs no label: the signal is the heat of the interaction.

In turn, “Intact M2 protein (mature form), Streptococcus pyogenes strain AP2 (natural protein)” had a Kd of 4 µM. The result for “M2G (M2_(53)G), M2 aa 53-86 fused at its C-terminus to a GCN4 coiled-coil sequence” reads 4 µM.
